Source: patent publication US20010029293A1
One block for each substance: values may come before it.

What was measured:
[1] = biological target: LFA-1 (CD11a/CD18) on cells (human) (UniProt P20701); experiment: JY cell adhesion to coated shICAM-R, mAb 10 µg/ml
[2] = biological target: LFA-1 (CD11a/CD18) on cells (human) (UniProt P20701); experiment: cell adhesion to coated shICAM-R, peptide 1-2 mg/ml
[3] = biological target: LFA-1 (CD11a/CD18) on cells (human) (UniProt P20701); experiment: neutrophil adhesion to coated ICAM-R/Ig, mAb 15 µg/ml

Sequence of LFA-1 (CD11a/CD18) on cells (human) (P20701 26-1170, chain 1 of 2): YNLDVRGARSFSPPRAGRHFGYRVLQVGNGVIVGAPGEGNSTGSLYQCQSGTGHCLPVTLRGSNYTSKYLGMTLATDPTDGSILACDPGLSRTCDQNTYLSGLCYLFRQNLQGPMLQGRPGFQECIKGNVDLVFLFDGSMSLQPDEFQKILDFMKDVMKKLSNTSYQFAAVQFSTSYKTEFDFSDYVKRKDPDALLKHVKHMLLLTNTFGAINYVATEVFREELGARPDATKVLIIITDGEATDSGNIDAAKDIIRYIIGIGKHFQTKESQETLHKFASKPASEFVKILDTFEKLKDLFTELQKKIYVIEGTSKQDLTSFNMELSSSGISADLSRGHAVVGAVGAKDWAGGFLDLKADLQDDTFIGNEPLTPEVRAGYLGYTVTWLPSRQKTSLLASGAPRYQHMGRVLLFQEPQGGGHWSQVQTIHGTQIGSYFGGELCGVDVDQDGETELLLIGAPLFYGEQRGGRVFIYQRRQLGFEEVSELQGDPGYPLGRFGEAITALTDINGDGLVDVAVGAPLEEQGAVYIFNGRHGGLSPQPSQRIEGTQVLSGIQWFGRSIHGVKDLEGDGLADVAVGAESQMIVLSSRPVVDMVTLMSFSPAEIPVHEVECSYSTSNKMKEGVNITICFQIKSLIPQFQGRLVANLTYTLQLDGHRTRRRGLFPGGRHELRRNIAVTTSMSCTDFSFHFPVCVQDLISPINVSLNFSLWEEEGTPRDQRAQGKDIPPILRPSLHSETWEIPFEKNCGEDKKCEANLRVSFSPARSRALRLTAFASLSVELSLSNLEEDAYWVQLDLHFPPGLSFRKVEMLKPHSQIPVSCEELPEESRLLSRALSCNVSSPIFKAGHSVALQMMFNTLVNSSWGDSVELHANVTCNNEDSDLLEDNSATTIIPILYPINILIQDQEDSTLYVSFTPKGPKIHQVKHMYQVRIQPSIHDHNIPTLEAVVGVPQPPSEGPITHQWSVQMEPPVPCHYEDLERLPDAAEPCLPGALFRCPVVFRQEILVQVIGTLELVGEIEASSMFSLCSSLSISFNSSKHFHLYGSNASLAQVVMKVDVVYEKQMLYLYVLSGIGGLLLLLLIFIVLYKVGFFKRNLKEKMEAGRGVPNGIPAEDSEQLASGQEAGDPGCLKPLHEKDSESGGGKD
Sequence of LFA-1 (CD11a/CD18) on cells (human) (P05107 23-769, chain 2 of 2, further chain): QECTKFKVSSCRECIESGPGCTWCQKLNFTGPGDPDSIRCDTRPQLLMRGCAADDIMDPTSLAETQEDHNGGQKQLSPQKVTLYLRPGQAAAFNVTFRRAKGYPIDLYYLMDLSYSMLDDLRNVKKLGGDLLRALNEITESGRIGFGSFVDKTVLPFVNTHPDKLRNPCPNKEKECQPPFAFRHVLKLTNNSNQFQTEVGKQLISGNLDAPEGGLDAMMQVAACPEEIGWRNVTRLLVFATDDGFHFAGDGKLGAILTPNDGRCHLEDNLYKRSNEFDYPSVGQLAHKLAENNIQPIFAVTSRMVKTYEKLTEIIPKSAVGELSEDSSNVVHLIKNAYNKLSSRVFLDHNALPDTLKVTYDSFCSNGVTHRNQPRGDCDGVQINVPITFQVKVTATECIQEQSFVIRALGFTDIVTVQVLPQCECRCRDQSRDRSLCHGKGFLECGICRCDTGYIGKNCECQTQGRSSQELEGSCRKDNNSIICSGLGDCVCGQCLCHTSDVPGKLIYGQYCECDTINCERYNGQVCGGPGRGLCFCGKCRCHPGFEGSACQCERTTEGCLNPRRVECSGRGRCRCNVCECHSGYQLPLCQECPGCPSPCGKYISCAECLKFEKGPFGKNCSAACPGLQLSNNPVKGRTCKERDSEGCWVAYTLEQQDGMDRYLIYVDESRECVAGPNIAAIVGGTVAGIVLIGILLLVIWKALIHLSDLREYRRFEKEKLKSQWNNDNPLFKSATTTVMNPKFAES

Inhibition (%) of CD18-dependent JY cell binding [1]: 100%
Substance: 60.3 (antibody)

% Inhibition CD18-Dependent Binding (SKW3) [2]: 26%
Substance: ICAM-R peptide 72-76 (NGSQI)

% inhibition of neutrophil binding to ICAM-R [3]: 50%
Substance: TS1/22 (antibody)
